Patent US10400230B2, “Protease variants and polynucleotides encoding same” (NOVOZYMES A/S, priority 2014, dated 2019)
Substitutions are numbered along the chain they refer to. Names may count otherwise.

Legend:
[1] = Determination of binding constants of inhibitor (NNIC) in Model B detergent, Suc-AAPF-pNA read-out; format: biochemical; conditions: Ki of variant with the mutation relative to variant without the mutation, <1.0 beneficial
[2] = Determination of binding constants of inhibitor in Tris buffer at pH 8; format: biochemical; conditions: Ki of variant with the mutation relative to variant without the mutation
Experimental: Purified protease variants are pre-diluted to approximately 0.2 mg/ml in dilution buffer. 40 μl diluted protease is then mixed with 40 μl inhibitor solution (Z-Gly-Ala-NHCH(CH2C6H4pOH)C(OH)(SO3Na)—H, wherein Z is benzyloxycarbonyl) or 40 μl 4-FPBA solution in the well of a 96 well microtiter plate (Nunc F 96-MTP). […] After 10 min mixing of protease and inhibitor at room temperature, 30 μl of the mixture is transferred to a microtiter plate (Nunc U96 PP 0.5 ml) with 270 μl Model B detergent in the wells resulting in inhibitor concentrations of 0-30 μM and 4-FPBA concentrations of 0-6000 μM. Protease, inhibitor and detergent is mixed for 1 hour using magnetic bars for 1 hour at room temperature to reach equilibrium. Then 20 μl is transferred to a microtiter plate (Nunc F 96-MTP). 100 μl substrate solution is added and after 5 sec mixing absorbance at 405 nm is measured every 20 sec for 5 min on a SpectraMax Plus reader. Slope from linear regression of initial increase in absorbance at 405 nm is used for calculation of apparent binding constants.
It is assumed that protease and inhibitor react according to the equation: E+I ? EI
Where E is the protease, I is the inhibitor and EI is the protease-inhibitor complex. […] The concentration of enzyme-inhibitor in the detergent solution is then given by:
where Etot is the total protease concentration ([Etot]=[E]+[EI]), Itot is the total inhibitor concentration ([Itot]=[I]+[EI]), and Ki is the equilibrium binding constant for the reaction. The measured slopes V are given by:
where V0 is the slope without inhibitor added. To calculate apparent binding constant Ki least square fitting of measured slopes at various inhibitor concentrations to this equation is performed with Ki and V0 as variables.
Having the Ki for each variant, it is possible to calculate the effect of a single mutation, if data are available for at least two variants that differ only by that mutation. In this case, the relative Ki for the mutation is calculated:
[formula] A lower Ki is desirable, as a satisfactory inhibition can be obtained at a lower inhibitor concentration, so beneficial mutations have a relative Ki<1.0 The following table show such relative Kimutation. Each row show: • a mutation (column 1: “Mutation”) • a protease variant (relative to SEQ ID NO: 2) that comprise the mutation from column 1 (column 2: “Variant with the mutation”) • another protease variant (relative to SEQ ID NO: 2), that differs from the one in column 2 only by not having the mutation in column 1 (column 3: “Variant without the mutation”) • Relative Kimutation for the mutation in column 1, in the context of the variant in column 3, measured in Model B detergent (column 4: “inhibitor binding in Model B”) • Relative Kimutation for the mutation in column 1, in the context of the variant in column 3, measured in Tris buffer at pH 8 (column 5: “inhibitor binding in Tris buffer pH 8”)

B1: K146F, S173P, S175P, F180Y: TY145 protease (SEQ ID NO 3) variant with these substitutions (protein, listed as Bacillus sp.)
chain: AVPSTQTPWGIKSIYNDQSITKTTGGSGIKVAVLDTGVYTSHLDLAGSAEQCKDFTQSNPLVDGSCTDRQGHGTHVAGTVLAHGGSNGQGVYGVAPQAKLWAYKVLGDNGSGYSDDIAAAIRHVADEASRTGSKVVINMSLGSSAFDSLIASAVDYAYGKGVLIVAAAGNSGPGPNTIGYPGGLVNAVAVAALENVQQNGTYRVADFSSRGNPATAGDYIIQERDIEVSAPGASVESTWYTGGYNTISGTSMATPHVAGLAAKIWSANTSLSHSQLRTELQNRAKVYDIKGGIGAGTGDDYASGFGYPRVK
- Inhibitor-binding relative Kimutation, inhibitor binding in Model B [1]: 0.25
- Inhibitor-binding relative Kimutation, inhibitor binding in Tris buffer pH 8 [2]: 0.19

B2: K146A, S173P, S175P, F180Y: TY145 protease (SEQ ID NO 3) variant with these substitutions (protein, listed as Bacillus sp.)
chain: B1 chain with F146A
- Inhibitor-binding relative Kimutation, inhibitor binding in Model B [1]: 0.34
- Inhibitor-binding relative Kimutation, inhibitor binding in Tris buffer pH 8 [2]: 0.29

B3: I150A, S173P, S175P, F180Y: TY145 protease (SEQ ID NO 3) variant with these substitutions (protein, listed as Bacillus sp.)
chain: B1 chain with F146K, I150A
- Inhibitor-binding relative Kimutation, inhibitor binding in Model B [1]: 0.50
- Inhibitor-binding relative Kimutation, inhibitor binding in Tris buffer pH 8 [2]: 0.40

B4: I150N, S173P, S175P, F180Y: TY145 protease (SEQ ID NO 3) variant with these substitutions (protein, listed as Bacillus sp.)
chain: B1 chain with F146K, I150N
- Inhibitor-binding relative Kimutation, inhibitor binding in Model B [1]: 0.35
- Inhibitor-binding relative Kimutation, inhibitor binding in Tris buffer pH 8 [2]: 0.21

B5: S114Q, S173P, S175P, F180Y: TY145 protease (SEQ ID NO 3) variant with these substitutions (protein, listed as Bacillus sp.)
chain: B1 chain with S114Q, F146K
- Inhibitor-binding relative Kimutation, inhibitor binding in Model B [1]: 0.63
- Inhibitor-binding relative Kimutation, inhibitor binding in Tris buffer pH 8 [2]: 0.34

B6: K146T, S173P, S175P, F180Y: TY145 protease (SEQ ID NO 3) variant with these substitutions (protein, listed as Bacillus sp.)
chain: B1 chain with F146T
- Inhibitor-binding relative Kimutation, inhibitor binding in Model B [1]: 0.08
- Inhibitor-binding relative Kimutation, inhibitor binding in Tris buffer pH 8 [2]: 0.06
